Measurements published in paper PMC10570711, “Tetramerization of upstream stimulating factor USF2 requires the elongated bent leucine zipper of the bHLH-LZ domain” (The Journal of Biological Chemistry, 2023).

Key:
[1] = molecular target: T1, MBP-USF2_WT (human, UniProt Q15853 235-346); experiment: fluorescence polarisation; fluorescence anisotropy; 10 nM 5IAF-labelled USF2_WT, MBP-USF2 proteins titrated 0-6 μM; 20 mM Tris 8.0, 50 mM KCl, 2 mM MgCl2, 0.5% glycerol; 4 °C overnight; apparent; dimer to monomers; settings: both partners purified
T1 construct: Upstream stimulating factor 2 (USF2), human, isoform 1, residues 235-346 (bHLH-LZ-Ext domain); Built in a pHis-MBP-TEV vector; a TEV site lies between the tag and USF2; also called 6×HisMBP-USF2_WT; source: E. coli Rosetta (DE3), purified (Ni-HiTrap, Superdex 75); not shown: His6, N-terminal, kept; MBP, N-terminal, kept

[2] = molecular target: USF2_Q334K (Homo sapiens, UniProt Q15853 235-346, Q334K); experiment: fluorescence anisotropy; similar to USF2_WT; FA: 20 nM FAM-DNA, 20 mM Tris pH 8.0, 50 mM KCl, 2 mM MgCl2, 0.5% glycerol, 4 C, 3 h; EMSA: 100 nM Cy3-DNA, 10 mM Tris pH 8.0, 50 mM KCl, 1 mM DTT, 2 mM MgCl2; settings: protein: recombinant; chain copies: 2; label: 5'-FAM on strand 1; blunt as printed if S3 is read 3'-5' (printed with 5'-3' labels)
Sequence of USF2_Q334K (Q15853 235-346 Q334K): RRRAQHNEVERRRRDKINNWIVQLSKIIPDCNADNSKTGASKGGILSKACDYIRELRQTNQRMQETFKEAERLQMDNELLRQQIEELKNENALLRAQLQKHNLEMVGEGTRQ

[3] = molecular target: T2, MBP-USF2 R247A (Homo sapiens, UniProt Q15853 235-346, R247A); experiment: fluorescence anisotropy; FA: 20 nM FAM-DNA, 20 mM Tris pH 8.0, 50 mM KCl, 2 mM MgCl2, 0.5% glycerol, 4 C, 3 h; EMSA: 100 nM Cy3-DNA, 10 mM Tris pH 8.0, 50 mM KCl, 1 mM DTT, 2 mM MgCl2; settings: protein: recombinant; tags: 6xHis-MBP N-terminal; chain copies: 2; label: 5'-FAM on strand 1; blunt as printed if S3 is read 3'-5' (printed with 5'-3' labels)
T2 sequence: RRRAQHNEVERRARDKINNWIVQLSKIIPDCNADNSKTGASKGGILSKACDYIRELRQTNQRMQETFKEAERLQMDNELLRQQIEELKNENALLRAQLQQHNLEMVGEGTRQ

[4] = molecular target: MBP-USF2 H240A (Homo sapiens, UniProt Q15853 235-346, H240A); experiment: as above; settings: protein: recombinant; tags: 6xHis-MBP N-terminal; chain copies: 2; label: 5'-FAM on strand 1; blunt as printed if S3 is read 3'-5' (printed with 5'-3' labels)
Sequence of MBP-USF2 H240A (Q15853 235-346 H240A): as the sequence (Q15853 235-346 Q334K) above, with H6A, K100Q counted along it

[5] = molecular target: T3, MBP-USF2 E244K (Homo sapiens, UniProt Q15853 235-346, E244K); experiment: as above; settings: protein: recombinant; tags: 6xHis-MBP N-terminal; chain copies: 2; label: 5'-FAM on strand 1; blunt as printed if S3 is read 3'-5' (printed with 5'-3' labels)
T3 sequence: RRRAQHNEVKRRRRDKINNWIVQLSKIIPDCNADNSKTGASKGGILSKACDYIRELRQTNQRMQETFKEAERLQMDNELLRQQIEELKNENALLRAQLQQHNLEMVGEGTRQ

[6] = molecular target: T4, MBP-USF2 R248A (Homo sapiens, UniProt Q15853 235-346, R248A); experiment: as above; settings: protein: recombinant; tags: 6xHis-MBP N-terminal; chain copies: 2; label: 5'-FAM on strand 1; blunt as printed if S3 is read 3'-5' (printed with 5'-3' labels)
T4 sequence: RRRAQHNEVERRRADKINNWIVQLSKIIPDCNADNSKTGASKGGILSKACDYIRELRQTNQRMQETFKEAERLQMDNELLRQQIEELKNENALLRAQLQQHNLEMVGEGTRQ

[7] = molecular target: T5, MBP-USF2 E244A (Homo sapiens, UniProt Q15853 235-346, E244A); experiment: as above; settings: protein: recombinant; tags: 6xHis-MBP N-terminal; chain copies: 2; label: 5'-FAM on strand 1; blunt as printed if S3 is read 3'-5' (printed with 5'-3' labels)
T5 sequence: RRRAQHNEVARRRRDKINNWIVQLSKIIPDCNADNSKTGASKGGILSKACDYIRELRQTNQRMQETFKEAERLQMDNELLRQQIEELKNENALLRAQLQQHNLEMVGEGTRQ

[8] = molecular target: MBP-USF2_ΔLZ-Ext (Homo sapiens, UniProt Q15853 235-292); experiment: as above; settings: protein: recombinant; tags: 6xHis-MBP N-terminal; chain copies: 2; label: 5'-FAM on strand 1; blunt as printed if S3 is read 3'-5' (printed with 5'-3' labels)
[9] = molecular target: the molecule itself; experiment: crystal structure; USF2 235-346 cocrystallised with 18 bp double-stranded E-box DNA; sitting drop, 18 °C, 0.1 M Tris pH 7.0, 20% PEG4000; 3.5 Å; four protein chains in the asymmetric unit
[10] = molecular target: the molecule itself; experiment: SEC-MALS; 700 μM protein mixed with 350 μM E-box DNA, overnight at 4 °C; Superdex 75 Increase; 20 mM Hepes pH 7.5, 100 mM KCl, 10 mM DTT; 0.5 ml/min; the constant is of tetramer to dimers
[11] = molecular target: the molecule itself; experiment: dynamic light scattering; USF2_bHLH-LZ-ext-DNA complexes, 400 μM sample; 100 mM KCl, 10 mM Hepes pH 7.5

B1: 5IAF-labelled USF2_WT (5IAFUSF2_WT; labelled CGG-USF2_WT) (domain or fragment, human)
chain: CGGRRRAQHNEVERRRRDKINNWIVQLSKIIPDCNADNSKTGASKGGILSKACDYIRELRQTNQRMQETFKEAERLQMDNELLRQQIEELKNENALLRAQLQQHNLEMVGEGTRQ
modifications: 5-iodoacetamido-fluorescein (5-IAF) on the sulfhydryl cysteine end of CGG-USF2_WT
notes: CGG added before USF2 for labelling with 5-IAF (construct MBP-CGG-USF2_WT); Upstream stimulating factor 2 (USF2), human, isoform 1, residues 235-346 (bHLH-LZ-Ext domain); Made from MBP-CGG-USF2_WT by TEV cleavage of the His-MBP tag; also called 5IAF labeled USF2_WT; source: E. coli Rosetta (DE3), purified (Ni-HiTrap, TEV cleavage, HiTrap SP, S75), labelled with 5-IAF; not shown: His6, N-terminal, …
[1]
  Kd: 0.1 ± 0.019 µM

B2: FAM E-box DNA (dsDNA)
DNA 1: GACGGGCACGTGACGCGC
DNA 2: GCGCGTCACGTGCCCGTC
[2]
  binding result: binds
[3]
  Kd: 0.25 ± 0.067 µM
[4]
  Kd: 0.21 ± 0.043 µM
[5]
  Kd: 0.29 ± 0.098 µM
[6]
  Kd: 0.46 ± 0.079 µM
[7]
  Kd: 0.072 ± 0.023 µM
[8]
  binding signal: > 20 fold decrease vs USF2_WT

B3: USF2_bHLH-LZ-Ext (human USF2 isoform 1, residues 235-346) (domain or fragment, UniProt Q15853 235-346, looked up)
chain: RRRAQHNEVERRRRDKINNWIVQLSKIIPDCNADNSKTGASKGGILSKACDYIRELRQTNQRMQETFKEAERLQMDNELLRQQIEELKNENALLRAQLQQHNLEMVGEGTRQ
notes: Upstream stimulating factor 2 (USF2), human, isoform 1, residues 235-346 (basic region to the C terminus; bHLH-LZ-Ext); In the crystal, SEC-MALS and DLS experiments the protein was in complex with 18 bp E-box DNA; His-MBP tag removed with TEV protease; also called USF2_WT; bHLH-LZ-Ext domain of USF2; source: E. coli Rosetta (DE3), purified (Ni-HiTrap, Superdex 75; TEV cleavage, HiTrap SP, S75); …
[9]
  stoichiometry N: 2
[10]
  Kd: ~800 µM
[11]
  stoichiometry N: 4

B4: USF2_E312R_E320R (bHLH-LZ-Ext domain, residues 235-346, double mutant) (domain or fragment, human, UniProt Q15853 235-346, looked up)
chain: RRRAQHNEVERRRRDKINNWIVQLSKIIPDCNADNSKTGASKGGILSKACDYIRELRQTNQRMQETFKEAERLQMDNRLLRQQIERLKNENALLRAQLQQHNLEMVGEGTRQ
notes: Upstream stimulating factor 2 (USF2), human, isoform 1, residues 235-346 (bHLH-LZ-Ext domain) with E312R and E320R; Generated on the construct MBP-USF2_WT; also called E312R/E320R double mutation; tetramer interface mutant; source: E. coli Rosetta (DE3), purified (Ni-HiTrap, Superdex 75)
[10]
  stoichiometry N: 2
